One experiment addresses T1, His-tagged human NECTIN4 (human, UniProt Q96NY8 32-349).
T1 construct: Antigen of the BIAcore assay; also called antigen; recombinant NECTIN4 protein; not shown: His tag
T1 sequence: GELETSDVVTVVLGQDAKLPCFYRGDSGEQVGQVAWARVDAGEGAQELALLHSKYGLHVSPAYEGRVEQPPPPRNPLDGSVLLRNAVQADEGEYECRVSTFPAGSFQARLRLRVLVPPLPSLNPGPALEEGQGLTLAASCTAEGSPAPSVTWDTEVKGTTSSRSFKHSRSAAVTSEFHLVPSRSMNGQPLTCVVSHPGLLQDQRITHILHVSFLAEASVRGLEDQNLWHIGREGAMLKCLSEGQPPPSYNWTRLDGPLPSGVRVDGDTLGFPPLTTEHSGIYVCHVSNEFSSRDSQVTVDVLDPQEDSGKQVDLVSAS
Kind of experiment: SPR (BIAcore S200), antigen on CAP chip, antibody as analyte, 1:1 fit. The procedure: Interactions between the antibodies and the antigen were measured using a BIAcore instrument S200 from GE. Referring to the instructions provided in Biotin Capture Kit from GE Healthcare, the analytical channel and the control sample channel on CAP sensor chip were first coupled with antigen i.e. His-tagged human NECTIN4, then samples containing antibodies (diluted 3-fold from an initial concentration of 20 nM respectively and solutions of each antibody of 8 concentrations were obtained totally, and the concentration 0.741 nM was set to be repeated) were allowed to flow through both the analytical channel and the sample channel, and the photoreactions upon antibody-antigen binding were measured. Association constant Kon and dissociation constant Koff and affinity constant KD of each antibody were finally obtained by instrument software fitting (1:1 binding mode) analysis.

The target of experiment [1] is T2, human Nectin-1(C-6His), Novoprotein Cat# C492 (human, UniProt Q15223 31-334, limits assumed).
T2 sequence: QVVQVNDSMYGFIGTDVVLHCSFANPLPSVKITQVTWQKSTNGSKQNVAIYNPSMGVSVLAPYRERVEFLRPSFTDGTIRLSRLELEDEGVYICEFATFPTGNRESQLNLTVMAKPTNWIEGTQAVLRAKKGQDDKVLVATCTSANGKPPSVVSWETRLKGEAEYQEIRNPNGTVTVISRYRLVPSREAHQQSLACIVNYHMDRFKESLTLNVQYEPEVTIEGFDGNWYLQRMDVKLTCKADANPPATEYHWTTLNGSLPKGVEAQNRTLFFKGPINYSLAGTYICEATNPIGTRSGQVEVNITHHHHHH
The experiment is described as follows: ELISA, plate coated with 1 µg/ml human Nectin-1(C-6His), absorbance at 450 nm. The text names only a goat anti-rabbit HRP secondary antibody. The procedure: (§1) Plates were coated with 1 µg/ml of the antigens and incubated at 4° C. overnight; next, antibodies serially diluted were added into the plates. Finally, the HRP-labeled secondary antibody was added, and absorbance at 450 nm was detected.

The target in the next experiment is T3, Cyno Nectin4 (Cyno, UniProt Q96NY8 32-510 (human entry)).
T3 construct: Expressed on HEK293 cells (HEK-cynoNectin4)
T3 chain: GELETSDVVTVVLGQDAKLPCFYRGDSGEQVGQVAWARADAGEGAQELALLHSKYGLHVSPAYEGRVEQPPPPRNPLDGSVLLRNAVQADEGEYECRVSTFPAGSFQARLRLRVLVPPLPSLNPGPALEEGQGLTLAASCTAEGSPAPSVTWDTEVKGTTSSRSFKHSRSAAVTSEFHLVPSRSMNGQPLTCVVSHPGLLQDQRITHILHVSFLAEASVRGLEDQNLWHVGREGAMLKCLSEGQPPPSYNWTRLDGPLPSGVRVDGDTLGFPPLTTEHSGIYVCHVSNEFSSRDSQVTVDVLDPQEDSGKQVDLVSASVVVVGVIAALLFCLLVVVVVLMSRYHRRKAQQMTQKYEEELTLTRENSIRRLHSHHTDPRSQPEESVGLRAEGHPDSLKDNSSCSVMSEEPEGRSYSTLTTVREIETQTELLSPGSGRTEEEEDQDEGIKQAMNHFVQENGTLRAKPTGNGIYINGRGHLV
Kind of experiment: FACS on HEK-cynoNectin4 cells.

The target of experiment [2] is T4, human Nectin-4(C-6His), Novoprotein Cat# CJ19 (human, UniProt Q96NY8 32-349).
T4 construct: Bought protein; also called recombinant human Nectin4 protein; antigen Nectin-4
T4 sequence: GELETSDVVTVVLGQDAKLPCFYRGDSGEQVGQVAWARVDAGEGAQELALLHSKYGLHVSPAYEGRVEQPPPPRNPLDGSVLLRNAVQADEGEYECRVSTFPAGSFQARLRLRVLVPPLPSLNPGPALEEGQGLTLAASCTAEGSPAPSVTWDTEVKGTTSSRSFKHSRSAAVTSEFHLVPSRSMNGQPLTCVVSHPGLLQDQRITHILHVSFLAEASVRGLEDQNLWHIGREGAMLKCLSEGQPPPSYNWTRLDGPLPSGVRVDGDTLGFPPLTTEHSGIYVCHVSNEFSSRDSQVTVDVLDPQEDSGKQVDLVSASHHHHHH
The experiment is described as follows: ELISA, plate coated with 1 µg/ml human Nectin-4(C-6His), HRP-labelled secondary antibody, absorbance at 450 nm. The procedure:
as §1

Experiment [3] addresses T5, murine Nectin4 (NP_082169) (murine, UniProt Q8R007 31-508).
T5 construct: whole, on cells; also called muNectin4
T5 sequence (looked up): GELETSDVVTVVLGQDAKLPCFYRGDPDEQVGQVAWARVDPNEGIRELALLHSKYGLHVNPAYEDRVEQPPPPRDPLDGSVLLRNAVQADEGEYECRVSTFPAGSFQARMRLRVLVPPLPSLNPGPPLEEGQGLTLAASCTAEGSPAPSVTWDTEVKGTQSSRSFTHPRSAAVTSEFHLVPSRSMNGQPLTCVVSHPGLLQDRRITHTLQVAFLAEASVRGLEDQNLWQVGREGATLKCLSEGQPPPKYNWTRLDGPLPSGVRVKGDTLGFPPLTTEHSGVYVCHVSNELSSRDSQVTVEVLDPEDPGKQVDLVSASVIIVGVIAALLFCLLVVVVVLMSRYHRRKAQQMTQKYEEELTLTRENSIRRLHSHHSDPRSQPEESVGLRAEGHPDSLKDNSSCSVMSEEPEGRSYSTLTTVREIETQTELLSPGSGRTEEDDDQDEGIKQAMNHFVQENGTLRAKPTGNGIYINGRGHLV
Kind of experiment: FACS on HEK-muNectin4 cells.

B1: Enfortumab (antibody, human IgG1, kappa, V domains shown)
VH: EVQLVESGGGLVQPGGSLRLSCAASGFTFSSYNMNWVRQAPGKGLEWVSYISSSSSTIYYADSVKGRFTISRDNAKNSLSLQMNSLRDEDTAVYYCARAYYYGMDVWGQGTTVTVSS
VL: DIQMTQSPSSVSASVGDRVTITCRASQGISGWLAWYQQKPGKAPKFLIYAASTLQSGVPSRFSGSGSGTDFTLTISSLQPEDFATYYCQQANSFPPTFGGGTKVEIKR
notes: also called control antibody Enfortumab
B1: in the experiment with His-tagged human NECTIN4, the Kd was found to be 4.94 nM. In addition, in experiment [1], the binding result was “no binding (tested: about 2.5 µg/ml (last point))”. The EC50 in the experiment with Cyno Nectin4 is 0.948 to 2.07 µg/mL; in experiment [3] it was 2.43 µg/mL. In addition, the “EC50 (read off the curve)” value in experiment [2] was approximately 0.1 µg/mL.

B2: 42D20 hz10 (antibody, V domains shown)
VH: QVQLQESGPGLVKPSETLSLTCTVSGFSLIDYGVSWIRQPPGKGLEWIGVIWGDGKIYYNSVLKSRVTISKDNSKSQVSLKLSSVTAADTAVYYCAKQGGLLFYAMDYWGQGTLVTVSS
VL: DIVMTQSPDSLAVSLGERATINCKSSQSLLNSYSQKNYLAWYQQKPGQPPKLLIYFASTRESGVPDRFSGSGSGTDFTLTISSLQAEDVAVYYCQQHYNTPFTFGAGTKLELKR
notes: Humanized
In the case of B2, the Kd with His-tagged human NECTIN4 was 1.14 nM. The binding result in experiment [1] is on record as “no binding (tested: about 2.5 µg/ml (last point))”. Also, the figures for the EC50 (with Cyno Nectin4; in experiment [3]) were 2.42 to 4.97 µg/mL and 8.74 µg/mL, respectively. In experiment [2], the half-maximal effective concentration (EC50 (read off the curve)) is approximately 0.09 µg/mL.

Values taken from patent publication US20230265183A1 (MABWELL SHANGHAI BIOSCIENCE, published 2023).
